The source of these data is patent publication US20220143196A1 (ARIZONA BOARD OF REGENTS ON BEHALF OF THE UNIVERSITY OF …, published 2022).

As a reminder, the Ki is the equilibrium dissociation constant of an inhibitor or competing ligand from its target.

The target of assay [1] is T1, human melanocortin 1 receptor (MC1R) (human, UniProt Q01726 1-317).
T1 construct: whole, on cells; also called MC1 receptor
As to the kind of experiment: competitive binding vs 125I-NDP-α-MSH on whole HEK293 cells overexpressing human MC1R.
Protocol: (§1) Competitive binding assays were performed on whole cells. Stably transfected HEK293 cell lines overexpressing human MC1R, MC3R, MC4R or MC5R were seeded on 96-well plates 48 h before the assay and grown to 100,000 cells per well. For the assay, the medium was removed, and cells were washed twice with a binding buffer containing minimum essential medium with Earle's salt (MEM, GIBCO), 25 mM HEPES (pH 7.4), 0.2% bovine serum albumin, 1 mM 1,10-phenanthrolone, 0.5 mg/L leupeptin and 200 mg/L bacitracin. […] The medium was subsequently removed, and the cells were washed twice with the binding buffer. The cells were lysed by 50 μL of 0.1 mM NaOH and 50 μL of 1% Triton X-100. The plates were left dry overnight under the hood, and 50 μL of scintillation fluid (OptiPhase SuperMix, PerkinElmer) were added in each well. The radioactivity was measured using MicroBeta 2 microplate counter (PerkinElmer). Data were analyzed using Graphpad Prism 6 (Graphpad Software, San Diego, Calif.).

In a further assay the target is T2, human MC3R (human, UniProt P41968 1-323).
T2 construct: whole, on cells
T2 sequence (P41968 whole entry): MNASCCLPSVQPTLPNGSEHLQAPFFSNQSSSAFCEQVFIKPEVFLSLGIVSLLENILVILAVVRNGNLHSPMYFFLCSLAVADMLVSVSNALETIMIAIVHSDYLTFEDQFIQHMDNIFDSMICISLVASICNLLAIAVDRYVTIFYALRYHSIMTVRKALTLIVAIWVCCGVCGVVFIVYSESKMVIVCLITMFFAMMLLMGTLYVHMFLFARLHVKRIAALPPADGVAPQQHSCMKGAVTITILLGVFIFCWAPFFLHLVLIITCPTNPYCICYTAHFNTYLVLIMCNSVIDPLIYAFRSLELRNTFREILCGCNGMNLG
As to the kind of experiment: competitive binding vs 125I-NDP-α-MSH on whole HEK293 cells overexpressing human MC3R.

Another assay addresses T3, human MC4R (human, UniProt P32245 1-332).
T3 construct: whole, on cells
Briefly: competitive binding vs 125I-NDP-α-MSH on whole HEK293 cells overexpressing human MC4R.

A further assay deals with T4, human MC5R (human, UniProt P33032 1-325).
T4 construct: whole, on cells
T4 sequence (P33032 whole entry): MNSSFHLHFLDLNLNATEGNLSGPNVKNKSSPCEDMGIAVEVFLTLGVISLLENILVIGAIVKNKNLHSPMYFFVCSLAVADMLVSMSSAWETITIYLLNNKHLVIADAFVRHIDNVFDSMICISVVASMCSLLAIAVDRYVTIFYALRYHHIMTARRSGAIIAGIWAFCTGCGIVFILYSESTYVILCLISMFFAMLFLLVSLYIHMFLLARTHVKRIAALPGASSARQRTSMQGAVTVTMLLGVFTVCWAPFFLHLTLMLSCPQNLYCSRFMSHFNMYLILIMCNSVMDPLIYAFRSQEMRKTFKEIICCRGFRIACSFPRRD
As to the kind of experiment: competitive binding vs 125I-NDP-α-MSH on whole HEK293 cells overexpressing human MC5R.

T1 sequence (Q01726 whole entry): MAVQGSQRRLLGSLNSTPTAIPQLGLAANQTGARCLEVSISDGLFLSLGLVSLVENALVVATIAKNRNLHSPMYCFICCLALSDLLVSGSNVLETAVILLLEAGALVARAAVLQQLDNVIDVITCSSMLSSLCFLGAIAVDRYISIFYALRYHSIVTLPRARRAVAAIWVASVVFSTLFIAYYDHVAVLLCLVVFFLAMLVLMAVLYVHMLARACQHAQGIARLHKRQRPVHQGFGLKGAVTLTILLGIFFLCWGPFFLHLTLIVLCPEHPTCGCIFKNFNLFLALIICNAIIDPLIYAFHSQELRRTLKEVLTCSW
T3 sequence (P32245 whole entry): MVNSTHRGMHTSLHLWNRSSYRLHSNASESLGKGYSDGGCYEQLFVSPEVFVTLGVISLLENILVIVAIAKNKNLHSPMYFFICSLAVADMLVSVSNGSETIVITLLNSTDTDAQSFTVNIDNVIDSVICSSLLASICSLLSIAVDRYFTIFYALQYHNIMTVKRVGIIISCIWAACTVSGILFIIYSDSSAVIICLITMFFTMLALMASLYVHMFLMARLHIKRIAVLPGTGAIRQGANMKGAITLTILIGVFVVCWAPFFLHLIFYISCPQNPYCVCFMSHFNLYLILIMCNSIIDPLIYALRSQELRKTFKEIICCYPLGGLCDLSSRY
Protocol for human MC3R: as §1
Protocol for human MC4R: as §1
Protocol for human MC5R: as §1

B1: camptothecin (CPT)-MT-II conjugate (1) (peptide)
peptide: CXLDHFRWK
modifications: not fully specified; Cys 1 thiol joined by a disulfide to a 2-thioethyl carbonate linker carrying camptothecin; 6-aminohexanoic acid (6-Ahx) at 2; Nle at 3; D-Phe at 6; lactam cyclization between Asp 4 and Lys 9 side chains; C-terminal amide; no N-terminal acetyl on Nle (replaced by the Cys-6-Ahx spacer)
notes: also called CPT-MT-II (1); camptothecin-MT-II (1)
For B1, the inhibition constant (Ki) in assay [1] stood at 57 nM; with human MC3R, 300 nM; with human MC4R it was 173 nM; with human MC5R it was 194 nM.

B2: fluorescein-MT-II conjugate (2) (peptide)
peptide: CXLDHFRWK
modifications: not fully specified; Cys 1 thiol joined by a disulfide to a 2-thioethyl carbonate linker carrying fluorescein; 6-aminohexanoic acid (6-Ahx) at 2; Nle at 3; D-Phe at 6; lactam cyclization between Asp 4 and Lys 9 side chains; C-terminal amide; no N-terminal acetyl on Nle (replaced by the Cys-6-Ahx spacer)
notes: also called fluorescein-MT-II (2); compound 2
Take B2: the Ki in assay [1] came out at 172 nM.
